What was measured:
[1] = biological target: T1, mouse MerTK on mouse macrophages (mouse, UniProt Q60805 19-994); assay: cell-based or functional assay
T1 sequence (looked up): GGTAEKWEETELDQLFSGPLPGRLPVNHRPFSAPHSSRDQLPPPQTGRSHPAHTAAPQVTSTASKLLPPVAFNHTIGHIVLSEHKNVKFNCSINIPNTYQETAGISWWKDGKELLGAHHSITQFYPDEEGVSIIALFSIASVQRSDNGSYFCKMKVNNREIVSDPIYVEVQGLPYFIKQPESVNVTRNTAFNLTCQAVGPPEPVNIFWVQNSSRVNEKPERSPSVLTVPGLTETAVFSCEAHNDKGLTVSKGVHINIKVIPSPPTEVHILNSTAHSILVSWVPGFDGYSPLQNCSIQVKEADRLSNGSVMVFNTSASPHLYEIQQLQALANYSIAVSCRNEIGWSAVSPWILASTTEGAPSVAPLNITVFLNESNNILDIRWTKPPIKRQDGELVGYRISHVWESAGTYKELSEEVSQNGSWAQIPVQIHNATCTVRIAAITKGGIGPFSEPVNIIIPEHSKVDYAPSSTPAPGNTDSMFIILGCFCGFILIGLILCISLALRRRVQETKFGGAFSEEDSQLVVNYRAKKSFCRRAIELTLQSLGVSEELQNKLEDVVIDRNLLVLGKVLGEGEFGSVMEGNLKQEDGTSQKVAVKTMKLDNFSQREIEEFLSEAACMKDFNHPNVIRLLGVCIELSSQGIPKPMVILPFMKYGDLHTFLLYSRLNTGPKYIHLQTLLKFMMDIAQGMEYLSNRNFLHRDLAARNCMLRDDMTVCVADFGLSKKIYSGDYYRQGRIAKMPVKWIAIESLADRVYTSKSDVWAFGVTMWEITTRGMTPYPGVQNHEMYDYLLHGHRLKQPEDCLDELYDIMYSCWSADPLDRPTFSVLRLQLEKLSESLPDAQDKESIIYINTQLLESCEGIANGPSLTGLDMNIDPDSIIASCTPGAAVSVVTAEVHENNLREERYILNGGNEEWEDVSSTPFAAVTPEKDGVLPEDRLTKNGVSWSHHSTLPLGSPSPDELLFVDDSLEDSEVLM

[2] = biological target: T1, mouse MerTK on mouse macrophages; assay: cell-based or functional assay; remark: listed apart in the source
MuMER (E23-S496) = biological target: T2, MuMER (E23-S496) (mouse, UniProt Q60805 23-496); assay: SPR BIAcore T200, Ab captured, 25C
T2 construct: range 23-496; also called mouse MerTK extracellular domain
T2 sequence (looked up): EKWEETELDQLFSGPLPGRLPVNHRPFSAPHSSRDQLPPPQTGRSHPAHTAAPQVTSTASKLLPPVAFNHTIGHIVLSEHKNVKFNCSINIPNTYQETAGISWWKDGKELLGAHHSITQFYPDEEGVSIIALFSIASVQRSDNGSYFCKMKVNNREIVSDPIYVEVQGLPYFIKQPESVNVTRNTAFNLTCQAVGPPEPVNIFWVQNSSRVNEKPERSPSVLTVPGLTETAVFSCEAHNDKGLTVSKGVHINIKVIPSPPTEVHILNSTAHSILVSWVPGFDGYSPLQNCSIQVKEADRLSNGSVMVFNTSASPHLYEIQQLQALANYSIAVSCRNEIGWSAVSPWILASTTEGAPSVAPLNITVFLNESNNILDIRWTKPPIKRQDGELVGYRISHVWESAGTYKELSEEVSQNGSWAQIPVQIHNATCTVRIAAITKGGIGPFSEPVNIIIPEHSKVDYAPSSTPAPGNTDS
In short: (§1)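 Rabbit antibody captured to ~100 RU; MerTK domain injected as 3-fold dilutions (0.4–100 nM) in HBS-EP pH 7.4 at 25 °C, 30 μl/min. kon and koff from 1:1 Langmuir fit; KD = koff/kon.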

HuMER (R26-A499) = biological target: T3, HuMER (R26-A499) (human, UniProt Q12866 26-499); assay: SPR BIAcore T200, Ab captured, 25C
T3 construct: Extracellular domain with both Ig-like and both fibronectin-like domains; also called human MerTK extracellular domain
T3 sequence: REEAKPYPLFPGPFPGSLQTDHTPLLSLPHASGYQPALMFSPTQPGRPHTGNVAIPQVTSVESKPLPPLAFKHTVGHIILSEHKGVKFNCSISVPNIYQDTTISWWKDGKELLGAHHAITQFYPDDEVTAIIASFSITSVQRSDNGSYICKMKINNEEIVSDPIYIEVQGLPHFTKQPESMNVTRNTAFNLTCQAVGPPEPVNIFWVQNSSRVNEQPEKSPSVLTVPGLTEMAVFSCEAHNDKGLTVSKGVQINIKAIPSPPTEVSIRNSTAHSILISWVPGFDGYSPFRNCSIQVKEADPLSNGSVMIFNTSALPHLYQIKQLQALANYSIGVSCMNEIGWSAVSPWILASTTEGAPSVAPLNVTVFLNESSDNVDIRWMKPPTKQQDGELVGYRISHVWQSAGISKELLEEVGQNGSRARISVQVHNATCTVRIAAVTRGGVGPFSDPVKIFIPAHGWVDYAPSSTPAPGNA
In short: as §1

cynomolgus monkey MerTK [3] = biological target: T4, cynomolgus monkey MerTK (cynomolgus monkey, UniProt A0A2K5V1H9 32-505); assay: SPR BIAcore T200, Ab captured, 25C
T4 construct: Soluble analyte in SPR; also called Cyno MerTK
T4 sequence: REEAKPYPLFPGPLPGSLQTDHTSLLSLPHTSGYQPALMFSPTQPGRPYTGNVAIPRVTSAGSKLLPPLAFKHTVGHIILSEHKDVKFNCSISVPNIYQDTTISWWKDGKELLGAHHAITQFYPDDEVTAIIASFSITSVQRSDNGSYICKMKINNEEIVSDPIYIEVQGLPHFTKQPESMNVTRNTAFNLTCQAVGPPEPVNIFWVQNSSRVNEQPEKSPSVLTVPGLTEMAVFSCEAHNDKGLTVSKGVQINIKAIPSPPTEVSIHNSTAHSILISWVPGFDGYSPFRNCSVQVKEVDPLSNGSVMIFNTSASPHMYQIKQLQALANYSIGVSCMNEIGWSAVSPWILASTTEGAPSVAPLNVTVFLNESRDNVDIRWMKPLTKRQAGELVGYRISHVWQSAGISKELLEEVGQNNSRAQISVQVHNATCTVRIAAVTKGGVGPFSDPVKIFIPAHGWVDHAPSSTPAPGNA
In short: (§2)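 Rabbit or humanized antibody captured to ~100 RU; MerTK injected as 3-fold dilutions from 0.4 nM to 100 nM in HBS-EP (HEPES pH 7.4) at 30 μl/min, at 25° C. or 37° C. kon and koff fitted to a 1:1 Langmuir model; KD = koff/kon.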

human MerTK [4] = biological target: T5, human MerTK (human, UniProt Q12866 26-499); assay: SPR BIAcore T200, Ab captured, 25C
T5 construct: also called HuMER
T5 sequence: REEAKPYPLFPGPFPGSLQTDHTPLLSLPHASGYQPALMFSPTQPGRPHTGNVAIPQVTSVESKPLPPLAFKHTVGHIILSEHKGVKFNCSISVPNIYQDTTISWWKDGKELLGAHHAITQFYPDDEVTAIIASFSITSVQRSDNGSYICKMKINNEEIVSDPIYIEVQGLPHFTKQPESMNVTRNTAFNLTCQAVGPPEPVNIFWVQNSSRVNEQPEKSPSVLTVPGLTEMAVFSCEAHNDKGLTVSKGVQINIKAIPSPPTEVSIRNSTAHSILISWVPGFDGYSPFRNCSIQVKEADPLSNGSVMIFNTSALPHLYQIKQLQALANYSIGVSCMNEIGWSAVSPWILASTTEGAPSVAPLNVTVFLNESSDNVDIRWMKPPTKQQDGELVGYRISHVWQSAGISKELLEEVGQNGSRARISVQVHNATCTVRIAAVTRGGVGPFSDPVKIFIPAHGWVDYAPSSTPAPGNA
In short: as §2

mouse MerTK [5] = biological target: T6, mouse MerTK (mouse, UniProt Q60805 23-496); assay: SPR BIAcore T200, Ab captured, 25C
T6 construct: also called MuMER
T6 sequence (looked up): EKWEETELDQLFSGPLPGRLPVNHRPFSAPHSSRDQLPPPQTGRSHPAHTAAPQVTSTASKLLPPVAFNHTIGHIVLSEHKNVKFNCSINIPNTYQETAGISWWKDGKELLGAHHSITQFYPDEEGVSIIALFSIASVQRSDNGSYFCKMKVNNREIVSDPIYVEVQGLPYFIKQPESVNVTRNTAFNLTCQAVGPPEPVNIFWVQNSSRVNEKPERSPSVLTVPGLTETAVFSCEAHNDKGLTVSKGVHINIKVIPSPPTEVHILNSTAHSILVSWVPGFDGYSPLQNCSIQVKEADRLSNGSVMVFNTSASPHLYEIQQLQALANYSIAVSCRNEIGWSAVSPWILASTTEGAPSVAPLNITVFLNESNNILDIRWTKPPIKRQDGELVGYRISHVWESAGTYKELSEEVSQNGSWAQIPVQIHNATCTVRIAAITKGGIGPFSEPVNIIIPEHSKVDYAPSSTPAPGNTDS
In short: as §2

cynomolgus monkey MerTK [6] = biological target: T4, cynomolgus monkey MerTK; assay: SPR BIAcore T200, Ab captured, 37C
Description: (§3) All binding affinity determinations were obtained using Surface Plasmon Resonance (SPR) measurements from a BIAcore™-T200 instrument. Briefly, each rabbit or humanized antibody was captured to achieve approximately 100 RU (Response Units). Then, 3-fold serial dilutions of MerTK from various species (0.4 nM to 100 nM) diluted in HBS-EP buffer (0.01M HEPES pH 7.4, 0.15M NaCl, 3 mM EDTA and 0.05% v/v surfactant P20) was injected into the BIAcore™-T200 instrument at 25° C. or 37° C. with a flow rate of 30 μl/min. Association rates (kₒₙ) and dissociation rates (koff) were calculated using a simple one-to-one Langmuir binding model (BIAcore T200 evaluation software version 2.0). The equilibrium dissociation constant (KD) was calculated as the ratio koff/kₒₙ.

rat MerTK = biological target: T7, rat MerTK (rat, UniProt P57097 23-496, limits assumed); assay: SPR BIAcore T200, Ab captured, 37C
T7 construct: Soluble analyte in SPR
T7 sequence (looked up): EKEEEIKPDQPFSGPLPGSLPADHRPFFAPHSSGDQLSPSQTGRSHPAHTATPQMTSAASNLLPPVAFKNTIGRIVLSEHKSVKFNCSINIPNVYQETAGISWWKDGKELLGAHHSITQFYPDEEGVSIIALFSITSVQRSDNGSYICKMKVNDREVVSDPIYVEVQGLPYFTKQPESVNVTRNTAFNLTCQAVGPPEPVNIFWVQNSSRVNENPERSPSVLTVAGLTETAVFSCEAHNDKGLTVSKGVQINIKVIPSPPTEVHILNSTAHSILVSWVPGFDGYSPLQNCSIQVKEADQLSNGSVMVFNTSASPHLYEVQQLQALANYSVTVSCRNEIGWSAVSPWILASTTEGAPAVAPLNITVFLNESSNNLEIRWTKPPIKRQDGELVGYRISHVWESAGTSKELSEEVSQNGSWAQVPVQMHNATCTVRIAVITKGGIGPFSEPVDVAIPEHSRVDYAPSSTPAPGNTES
Description: as §3

human MerTK [7] = biological target: T5, human MerTK; assay: SPR BIAcore T200, Ab captured, 37C
Description: as §3

mouse MerTK [8] = biological target: T6, mouse MerTK; assay: SPR BIAcore T200, Ab captured, 37C
Description: as §3

Row | Binder | IC50 (nM), efferocytosis by mouse macrophages, Average [1] [nM] | fold decrease in phagocytic clearance of apoptotic thymocytes by peritoneal macrophages, against control anti-gp120 [2] [fold] | fold potency in inhibiting mouse macrophage phagocytosis, against h10F7.v16 [2] [fold] | Kd (MuMER (E23-S496)) [nM] | Kd (HuMER (R26-A499)) [nM] | Kd (cynomolgus monkey MerTK [3]) [nM] | Kd (human MerTK [4]) [nM] | Kd (mouse MerTK [5]) [nM] | Kd (cynomolgus monkey MerTK [6]) [nM] | Kd (rat MerTK) [nM] | Kd (human MerTK [7]) [nM] | Kd (mouse MerTK [8]) [nM]
1 | anti-MerTK 14C9 (mIgG2a LALAPG) (antibody, V domains shown) VH: QSVEESGGRLVTPGTPLTLTCTVSGIDLSANTMNWVRQAPGKGLEWIGIFTATGSTYYATWVNGRFTISKTSTTVDLKITSPTTEDTATYFCARSGSGSSSGAFNIWGPGTLVTVSL VL: DPVLTQTPASVSEPVGGTVTIKCQASQSISSSLAWYQQKPGQPPKLLIYAASILASEISSRFKGSRSGTEFTLTISDLECADAATYYCQCTSYGSLFLGPFGGGTEVVVK | 0.19 | ~8 | 4.8 | – | – | – | – | – | – | – | – | –
2 | Rbt10C3 (antibody, V domains shown, Recombinant rabbit monoclonal antibody, Expi293, protein A purified) VH: QSLEESGGRLVTPGTPLTLTCTASGFSLSGYTMGWVRQAPGKGLEYIGVISSGGTTYYTNWAKGRFTISKTSTTVDLKITSPTTEDTATYFCARVAFTAYGGGGFPTLHRLDLWGQGTLVTVSS VL: AQVLIQTASSVSAAVGGTVTISCQSSESVYNNDYLAWYQQKPGQPPKLLIYSASTLASGVPSRFKGSGSGTQFTLTISDLECDDAATYYCAGGYLGNNVFGGGTEVVVK | – | – | – | 0.7 | 3.4 | 3 | 3.4 | 0.7 | 4.1 | 2.4 | 9.9 | 0.8
